Measurements: patent US20210213134A1, “THIOL-BASED MULTIVALENT DRUG DELIVERY COMPOSITIONS” (ORPRO THERAPEUTICS, INC., priority 2018, published 2021)
Positions count from the first letter of the chain named. Entries after “also recorded” stand apart in the source; their conditions may differ.

B1: Azido-C35STRX (conjugate, UniProt P10599 2-105, looked up, variant C35S)
Thioredoxin: VKQIESKTAFQEALDAAGDKLVVVDFSATWCGPSKMIKPFFHSLSEKYSNVIFLEVDVDDCQDVASECEVKCMPTFQFFKKGQKVGEFSGANKEKLEATINELV
modifications: azido group
B2: C35STRX: monocysteinic active site Cys32-Ser35 variant of human thioredoxin-1, mucus-targeting scaffold (protein)
chain: MVKQIESKTAFQEALDAAGDKLVVVDFSATWCGPSKMIKPFFHSLSEKYSNVIFLEVDVDDCQDVASECEVKCMPTFQFFKKGQKVGEFSGANKEKLEATINELV
B3: biotinylated C35STRX (conjugate)
chain: B2 chain
B4: Oxidized (inactive) C35STRX: oxidized, inactive form of C35STRX used as control (protein)
chain: B2 chain
B5: TRX: endogenously secreted human epithelial protein thioredoxin-1, small (12 kDa) redox enzyme (protein)
chain: B2 chain with S35C

Columns and labels:
[1] = DTNB assay (percent reduction state, free sulfhydryl); type: physicochemical; conditions: Table 1
Experimental: C35STRX-antibiotic conjugates are dissolved in PBS to the original volume before lyophilization and assayed for stability over seven days in comparison to non-conjugated reduced C35STRX. C35STRX-antibiotic conjugate concentration is measured by BCA protein assay (Pierce). […] Degradation/aggregation of C35STRX-antibiotic conjugates is determined by the percentage of C35STRX-antibiotic conjugate monomers assayed by SEC using an Agilent 1100 HPLC system and a BioBasic SEC-300 250×4.6 column (ThermoScientific) with a 40 mM Na acetate, 450 mM Na chloride 2 mM EDTA (pH 5.5) buffer at a flow rate 0.350 mL/min and detection by absorbance at 280 nm (A280).
Codon-optimized synthetic oligonucleotides encoding Lys to Ala mutants of C35STRX cloned into vector pD861 (Atum, Newark, Calif.) are expressed solubly in BL21 ΔrhaB E. coli under rhamnose induction (0.1% w/v, 26 deg C.) in APF-LB medium with 0.05% w/v glucose substrate at an O.D.600 of 0.8 in 2.8 L Fernbach shake flasks at NRC (Montreal Canada). Following cell pellet lysis (EmulsiFlex-C3, Avestin, Ottawa Canada) protein is purified from clarified extracts using anion exchange chromatography (FPLC, Akta) and 5 kDa ultrafiltration/diafiltration (UF/DF). […] Physical characterization: C35S(KA)TRX concentration is measured by BCA Protein assay (Pierce).

[2] = target: T1, insulin disulfides (heterodimeric insulin) (Homo sapiens, UniProt P01308); assay: single-turnover insulin protein disulfide reduction assay (RP-HPLC of insulin heterodimer peak); type: biochemical; design: % reduction: concentration or dose not given beside the values; conditions: for % reduction / insulin heterodimer peak (RP-HPLC): pH 8
T1 construct: fully disulfide-bonded heterodimeric insulin
T1 sequence (P01308 25-54 limits assumed): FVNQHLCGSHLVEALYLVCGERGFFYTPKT
T1 sequence (P01308 90-110 limits assumed): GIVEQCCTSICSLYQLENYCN
Experimental: Left side of FIG. 1—polyacrylamide gel electrophoresis of native human thioredoxin-1 (TRX). Lane 1: Molecular weight standards; Lane 2: Oxidized TRX; Lane 3: Oxidized TRX following reaction with dithiothreitol (DTT); Lane 4: Oxidized TRX following reaction with reduced glutathione (GSH); Lane 5: Oxidized TRX following reaction with GSH followed by DTT. Right side of FIG. 1—TRX was oxidized by exposure to ambient air for one week then incubated with either DTT or GSH at pH 8 for 1 hour followed by purification over a size exclusion column to remove unreacted free DTT or GSH after which the TRX was collected and used in a single-turnover insulin protein-disulfide reduction assay. Oxidized TRX (bottom line), TRX reduced with DTT (top line) or TRX reduced with GSH (middle line) were incubated with fully disulfide-bonded heterodimeric insulin at pH 8. After 30 min, 60 min and 120 minutes aliquots were taken and diluted with 0.1% TFA and 17 uM (final) iodoacetic acid and analyzed over RP-HPLC. Absorbance was monitored at 214 nm and the peak area of the insulin heterodimer fraction was determined at each time point to quantify TRX protein disulfide-reducing activity.
C35STRX was oxidized and Lys residues were conjugated to an azido-PEG linker. The conjugated material was then reduced and tested for molecular weight using SDS-PAGE (FIG. 5D) and MALDI-TOF (FIG. 5E) and activity assessed using a single-turnover insulin protein disulfide reduction assay. From the gel and MALDI-TOF results there is no free C35STRX; however, the conjugated material retained about 33% of its activity in the insulin assay as compared to unreacted reduced C35STRX. See FIGS. 5A-5E and their descriptions above.
Insulin Activity Assay with C35STRX and Azido-C35STRX: C35STRX OD280 was 11.8, corresponding to a concentration of 1.69 mM. C35STRX a OD280 was 15, corresponding to a concentration of 2.14 mM. Azido-C35STRX OD280 was 4.0, corresponding to a concentration of 0.57 mM. pH 8 Insulin stock: […] of Tris pH8 and 572 µL H2O and 25 µL of insulin (10 mg/mL) and 10 µL of 0.5 M EDTA. C35STRX stock was 0.5 mM. Azido-C35STRX stock was 0.5 mM concentration.
The reaction was stopped by addition of 10 µL of 1 M iodoacetic acid and 400 µL of 0.1% TFA. Samples were analyzed by RP-HPLC for changes in the insulin heterodimer peak.

[3] = system: target proteins; assay: disulfide linkage to target proteins in vitro by HPLC and gel-shift; type: binding
[4] = system: extracellular airway mucus; assay: immunohistochemical detection of thioredoxin after IT delivery to rat airways; type: in vivo; conditions: intratracheal (IT) delivery, IHC
Description: FIG. 4 Immunohistochemical detection of thioredoxin following IT delivery to rat airways via Penn-Century micro-sprayer. […] Animals were sacrificed 4 hr post-dose and excised lungs fixed, sectioned and analyzed by IHC for immunodetection of thioredoxin.
Conversion of the thioredoxin active site to a monothiol allows thioredoxin homologue protein to remain covalently attached to targeted disulfides once it has reacted. […] Reduced thioredoxin homologue protein can remain bound to extracellular airway mucus for at least 4 hours following intratracheal (IT) delivery to normal rats with normal mucus as visualized by immunohistochemical detection (brown staining; FIG. 4, Top) using anti-human thioredoxin antisera. […] While time points later than 4 hours were not included in this study, normalization of mucociliary transport in human airway mucus on epithelia for up to 24 hours is observed confirming similar residence time/mucin binding duration for mucoadhesive conjugates.
Conversion of the thioredoxin active site to a reduced Cys32 monothiol allows thioredoxin variants to remain covalently attached to targeted disulfides once reacted. […]

[5] = system: human airway mucus on epithelia; assay: normalization of mucociliary transport in human airway mucus on epithelia; type: cell-based
[6] = system: human primary bronchial epithelia from CF and normal donors; type: cell-based
[7] = system: rat; conditions: in vivo
[8] = system: mice; conditions: mouse, in vivo
[9] = system: rats; assay: acute aerosol toxicity (nebulizer); type: in vivo
[10] = system: porcine gastric mucin; assay: mucin binding direct ELISA; conditions: reduced biotinylated conjugate, various mucin concentrations
Experimental: To establish the feasibility of covalently binding conjugated monocysteinic active site Cys32-Ser35 thioredoxin (C35STRX) to mucins, conjugation of C35STRX via its N-terminal NH2 to a model payload (biotin) using EZ-Link™ Sulfo-NHS-SS-Biotin (ThermoFisher) was carried out. Dithiothreitol (DTT, 0.1 M) was used to generate active C35STRX conjugates by reduction of the C35STRX active site Cys. Following DTT removal (NAPS column, GE Healthcare), the mucin binding ability of reduced biotinylated 0.02 C35STRX was evaluated by direct ELISA using 96 well plates 0 (Costar 3370) coated with 100 μl of various concentrations of porcine gastric mucin (Sigma) in 100 mM Tris-HCl buffer (pH 9). 100 μL of biotinylated C35STRX in 50 mM Tris (pH 8) and 1 mM EDTA was then added and incubated for 2 hours, with washes performed between each step. 50 μL of avidin-horseradish peroxidase (HRP) was added and incubated for 30 min followed by 50 μL of tetramethylbenzidine (TMB) substrate. Reactions were stopped after 5 min with 100 μl 1N sulfuric acid. Absorbance at […] (Molecular Devices SpectraMax i3) was plotted against mucin concentration.

[11] = literature values; cited from earlier work

| Molecule | % reduced [1] | % reduction ([2]; Table 3, 0 min) | insulin heterodimer peak (RP-HPLC) ([2]; Table 3, 0 min) | % reduction ([2]; Table 3, 90 min) | insulin heterodimer peak (RP-HPLC) ([2]; Table 3, 90 min) | % reduction ([2]; Table 4, 0 min) | insulin heterodimer peak (RP-HPLC) ([2]; Table 4, 0 min) | % reduction ([2]; Table 4, 90 min) | insulin heterodimer peak (RP-HPLC) ([2]; Table 4, 90 min) | also measured |
| --- | --- | --- | --- | --- | --- | --- | --- | --- | --- | --- |
| B1 | 106.6% | 0% | 8959.8 | 32.69% | 6030.6 | 0% | 10213 | 33.07% | 6835 | activity retained in the insulin assay as compared to unreacted reduced C35STRX ([2]; up to 11 azido-PEG linkers on Lys): about 33% |
| B2 | 109.4% | 0% | 8515.4 | 99.40% | 50.2 | 0% | 10602 | 97.70% | 243.2 | disulfide linkage to target proteins [3]: stable disulfide linkages to target proteins; time remaining bound to extracellular airway mucus ([4]; normal rats): at least 4 hours; duration of normalization of mucociliary transport [5]: up to 24 hours; adverse inflammatory effects in vitro [6]: No adverse inflammatory effects; adverse inflammatory effects in lavage fluid [7]: No adverse inflammatory effects; adverse inflammatory effects in lavage fluid [8]: No adverse inflammatory effects; toxic effects in normal animals treated by aerosol ([9]; normal animals, aerosol, high dose levels): lack of observed toxic effects; local or systemic toxicity, histopathology ([9]; rats dosed acutely, aerosol via nebulizer, highest delivered concentration 40 mg/kg): No local or systemic toxicity or histopathological anomalies |
| B3 |  |  |  |  |  |  |  |  |  | mucin binding [10]: bind mucin in a dose-dependent fashion; also recorded: maintained full mucin binding activity with linear kinetics |
| B4 |  |  |  |  |  |  |  |  |  | binding to mucus or the epithelial surface ([4]; rats, 4 hr post-dose): did not bind mucus or the epithelial surface |
| B5 |  |  |  |  |  |  |  |  |  | pKa of catalytic Cys thiol [11]: 6.2 |
